Results as given in US20140154252A1 (EMERGENT PRODUCT DEVELOPMENT SEATTLE, published 2014).

Columns and labels:
[1] = target: T1, CD20 (human, UniProt P11836 1-297); experiment: flow cytometry, dilutions of crude COS supernatant on WIL-2S cells (CD20), FITC goat anti-human IgG
T1 construct: whole, on cells; 2H7 is called murine anti-human CD20; also called CD20 presented on WIL-2S cells; CD20 on Ramos, BJAB, SU-DHL-6 and DoHH2 B cells
T1 sequence (looked up): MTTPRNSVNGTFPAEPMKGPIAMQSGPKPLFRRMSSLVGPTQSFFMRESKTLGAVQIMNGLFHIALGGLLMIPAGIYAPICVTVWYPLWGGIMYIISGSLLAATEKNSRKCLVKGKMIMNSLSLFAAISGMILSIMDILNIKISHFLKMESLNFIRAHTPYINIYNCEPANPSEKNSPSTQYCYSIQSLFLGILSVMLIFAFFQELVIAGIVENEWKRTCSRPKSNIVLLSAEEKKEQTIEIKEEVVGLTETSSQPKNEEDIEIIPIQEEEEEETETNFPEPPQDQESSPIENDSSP
Experimental: Seeded plates containing the proteins were incubated on ice for one hour. Subsequently, the wells were washed once with 200 μl 1% FBS in PBS. Goat anti-human antibody labeled with FITC (Fc Sp) at 1:100 was then added to each well, and the plates were again incubated on ice for one hour. The plates were then washed once with 200 μl 1% FBS in PBS and the cells were re-suspended in 200 μl 1% FBS and analyzed by FACS.

[2] = target: T1, CD20; experiment: flow cytometry on WIL2-S cells (CD20), purified protein at 5 ug/mL, FITC goat anti-human IgG 1:100
Experimental: Each of the proteins was tested for binding at 5 μg/ml, and binding detected with FITC goat anti-human IgG at 1:100. Control is FITC goat anti-human IgG alone. See the description for FIG. 2 above for more complete descriptions of the modules of the molecules tested.

[3] = target: T2, CD28mIgG (UniProt P10747 19-152); experiment: Western blot of non-reduced protein probed with CD28 murine IgG, then goat anti-mouse HRP
T2 construct: Bought reagent; the construct is not described; also called CD28Ig (Ancell); CD28 fused to mouse antibody; not shown: mouse Ig part of the bought fusion; not described
Experimental: (§1) Electrophoresis was performed under non-reducing conditions, and without boiling samples prior to loading. After electrophoresis, proteins were transferred to PVDF membranes using a semi-dry electroblotter apparatus (Ellard, Seattle, Wash.) for 1 hour at 100 mAmp. Membranes were blocked in BLOTTO (5% nonfat milk in PBS) overnight with agitation. FIG. 9A: Membranes were incubated with the AbyD02429.2, a Fab directed to the 2H7 antibody, at 5 μg/ml in BLOTTO for one hour, then washed 3 times for 5 minutes each in PBS-0.5% Tween 20. Membranes were then incubated in 6×His-HRP for one hour at a concentration of 0.5 μg/ml. Blots were washed three times for 15 minutes each in PBST. Wet membranes were incubated with ECL solution for 1 minute, followed by exposure to X-omat film for 20 seconds.
(§2) FIG. 9B: Membranes were incubated with CD28Ig (Ancell, Bayport, Minn.) at 10 μg/ml in BLOTTO, then washed three times for 15 minutes each in PBS-0.5% Tween 20. Membranes were then incubated in goat anti-mouse HRP conjugate (CalTag, Burlingame, Calif.) at 1:3000 in BLOTTO. Membranes were washed three times, for 15 minutes each, then incubated in ECL solution for 1 minute, followed by exposure to X-omat film for 20 seconds.

[4] = target: T1, CD20; experiment: sandwich flow cytometry: 2e12HL on WIL-2S cells (CD20), then CD28mIgG, then FITC anti-mouse
[5] = target: T2, CD28mIgG; experiment: Western blot, non-reducing, probed with CD28Ig and goat anti-mouse HRP conjugate
Experimental: as §1, §2

B1: 2H7-sssIgG P238S/P331S-STD1-2e12 VLVH (bispecific antibody)
chain: QIVLSQSPAILSASPGEKVTMTCRASSSVSYMHWYQQKPGSSPKPWIYAPSNLASGVPARFSGSGSGTSYSLTISRVEAEDAATYYCQQWSFNPPTFGAGTKLELKDGGGSGGGGSGGGGSSQAYLQQSGAESVRPGASVKMSCKASGYTFTSYNMHWVKQTPRQGLEWIGAIYPGNGDTSYNQKFKGKATLTVDKSSSTAYMQLSSLTSEDSAVYFCARVVYYSNSYWYFDVWGTGTTVTVSEPKSSDKTHTSPPSPAPELLGGSSVFLFPPKPKDTLMISRTPEVTCVVVDVSHEDPEVKFNWYVDGVEVHNAKTKPREEQYNSTYRVVSVLTVLHQDWLNGKEYKCKVSNKALPASIEKTISKAKGQPREPQVYTLPPSRDELTKNQVSLTCLVKGFYPSDIAVEWESNGQPENNYKTTPPVLDSDGSFFLYSKLTVDKSRWQQGNVFSCSVMHEALHNHYTQKSLSLSPGKNYGGGGSGGGGSGGGGSGNSDIVLTQSPASLAVSLGQRATISCRASESVEYYVTSLMQWYQQKPGQPPKLLISAASNVESGVPARFSGSGSGTDFSLNIHPVEEDDIAMYFCQQSRKVPWTFGGGTKLEIKRGGGGSGGGGSGGGGSQVQLKESGPGLVAPSQSLSITCTVSGFSLTGYGVNWVRQPPGKGLEWLGMIWGDGSTDYNSALKSRLSITKDNSKSQVFLKMNSLQTDDTARYYCARDGYSNFHYYVMDYWGQGTSVTVSS
notes: also called 2H7-IgG-STD1-2E12 LH; 2H7-2E12 LH
- binding result [1]: binds

B2: 2H7-sssIgG P238S/P331S-STD1-2e12 VHVL (bispecific antibody)
chain: QIVLSQSPAILSASPGEKVTMTCRASSSVSYMHWYQQKPGSSPKPWIYAPSNLASGVPARFSGSGSGTSYSLTISRVEAEDAATYYCQQWSFNPPTFGAGTKLELKDGGGSGGGGSGGGGSSQAYLQQSGAESVRPGASVKMSCKASGYTFTSYNMHWVKQTPRQGLEWIGAIYPGNGDTSYNQKFKGKATLTVDKSSSTAYMQLSSLTSEDSAVYFCARVVYYSNSYWYFDVWGTGTTVTVSEPKSSDKTHTSPPSPAPELLGGSSVFLFPPKPKDTLMISRTPEVTCVVVDVSHEDPEVKFNWYVDGVEVHNAKTKPREEQYNSTYRVVSVLTVLHQDWLNGKEYKCKVSNKALPASIEKTISKAKGQPREPQVYTLPPSRDELTKNQVSLTCLVKGFYPSDIAVEWESNGQPENNYKTTPPVLDSDGSFFLYSKLTVDKSRWQQGNVFSCSVMHEALHNHYTQKSLSLSPGKNYGGGGSGGGGSGGGGSGNSQVQLKESGPGLVAPSQSLSITCTVSGFSLTGYGVNWVRQPPGKGLEWLGMIWGDGSTDYNSALKSRLSITKDNSKSQVFLKMNSLQTDDTARYYCARDGYSNFHYYVMDYWGQGTSVTVSSGGGGSGGGGSGGGGSGGGGSDIVLTQSPASLAVSLGQRATISCRASESVEYYVTSLMQWYQQKPGQPPKLLISAASNVESGVPARFSGSGSGTDFSLNIHPVEEDDIAMYFCQQSRKVPWTFGGGTKLEIKR
notes: Assembled from modules as m10; also called 2H7-IgG-STD1-2E12 HL; 2H7-2E12 HL
- binding result [2]: binds

B3: TRU-015 (Fc fusion, not shown: a dimerising Fc or GST)
chain: QIVLSQSPAILSASPGEKVTMTCRASSSVSYMHWYQQKPGSSPKPWIYAPSNLASGVPARFSGSGSGTSYSLTISRVEAEDAATYYCQQWSFNPPTFGAGTKLELKDGGGSGGGGSGGGGSSQAYLQQSGAESVRPGASVKMSCKASGYTFTSYNMHWVKQTPRQGLEWIGAIYPGNGDTSYNQKFKGKATLTVDKSSSTAYMQLSSLTSEDSAVYFCARVVYYSNSYWYFDVWGTGTTVTVS
notes: SMIP: scFv-hinge-CH2-CH3; also called 2H7 SMIP; CD20 SMIP (TRU015)
- binding result [3]: no binding

B4: 2e12 VHVL SMIP (Fc fusion)
chain: QVQLKESGPGLVAPSQSLSITCTVSGFSLTGYGVNWVRQPPGKGLEWLGMIWGDGSTDYNSALKSRLSITKDNSKSQVFLKMNSLQTDDTARYYCARDGYSNFHYYVMDYWGQGTSVTVSSGGGGSGGGGSGGGGSGGGGSDIVLTQSPASLAVSLGQRATISCRASESVEYYVTSLMQWYQQKPGQPPKLLISAASNVESGVPARFSGSGSGTDFSLNIHPVEEDDIAMYFCQQSRKVPWTFGGGTKLEIKR
notes: SMIP: scFv-hinge-CH2-CH3; also called 2E12IgG-VHVL SMIP; 2e12 HL SMIP; not shown: hinge-CH2-CH3 of human IgG
- binding result [4]: no binding (tested: 5 ug/ml)

B5: SMIP-sized cleaved fragment (2H7-sss-hIgG) of 2H7-sss-hIgG-H6-2e12 (other)
chain: QIVLSQSPAILSASPGEKVTMTCRASSSVSYMHWYQQKPGSSPKPWIYAPSNLASGVPARFSGSGSGTSYSLTISRVEAEDAATYYCQQWSFNPPTFGAGTKLELKDGGGSGGGGSGGGGSSQAYLQQSGAESVRPGASVKMSCKASGYTFTSYNMHWVKQTPRQGLEWIGAIYPGNGDTSYNQKFKGKATLTVDKSSSTAYMQLSSLTSEDSAVYFCARVVYYSNSYWYFDVWGTGTTVTVSEPKSSDKTHTSPPSPAPELLGGSSVFLFPPKPKDTLMISRTPEVTCVVVDVSHEDPEVKFNWYVDGVEVHNAKTKPREEQYNSTYRVVSVLTVLHQDWLNGKEYKCKVSNKALPASIEKTISKAKGQPREPQVYTLPPSRDELTKNQVSLTCLVKGFYPSDIAVEWESNGQPENNYKTTPPVLDSDGSFFLYSKLTVDKSRWQQGNVFSCSVMHEALHNHYTQKSLSLSPGK
notes: Cleavage product seen on gels and blots, about 52 kDa; also called cleaved forms of the multivalent constructs; peptide fragment containing (2H7-sss-hIgG), and missing the CD28 scFv BD2 portion; not shown: C-terminal end: cleaved at or near the H6 linker, site not determined
- binding result [5]: no binding (tested: CD28Ig at 10 µg/ml)
